Assay results published in patent US7304033 (Bristol-Myers Squibb, dated 2007).

Key:
CD86Ig = molecular target: T1, CD86Ig (UniProt P42081 24-247); assay: SPR, CD86Ig immobilized, monomeric analytes
T1 construct: extracellular domain; also called soluble CD86Ig; B7-2 Ig
Experimental: (§1) Association and disassociation analyses were performed using BIA evaluation 2.1 Software (Pharmacia). Association rate constants $kon$ were calculated in two ways, assuming both homogenous single-site interactions and parallel two-site interactions. For single-site interactions, $kon$ values were calculated according to the equation $R_t=Req(1-\exp^{-ks(t-t_0)})$, where R_t is a response at a given time, t; $Req$ is the steady-state response; t_0 is the time at the start of the injection; and $k_s=dR/dt=kon \cdot Ckoff$, and where C is a concentration of analyte, calculated in terms of monomeric binding sites. For two-site interactions $kon$ values were calculated according to the equation $R_t=Req1(1-\exp^{-ks1(t-t_0)})+Req2(1-[…])$. For each model, the values of $kon$ were determined from the calculated slope (to about 70% maximal association) of plots of k_s versus C.

CD80Ig = molecular target: T2, CD80Ig (UniProt P33681 35-242); assay: SPR, CD80Ig immobilized, monomeric analytes
T2 construct: extracellular domain; also called soluble CD80Ig; B7-1 Ig
Experimental: as §1

T2 sequence (P33681 whole entry, the tested form may be a part): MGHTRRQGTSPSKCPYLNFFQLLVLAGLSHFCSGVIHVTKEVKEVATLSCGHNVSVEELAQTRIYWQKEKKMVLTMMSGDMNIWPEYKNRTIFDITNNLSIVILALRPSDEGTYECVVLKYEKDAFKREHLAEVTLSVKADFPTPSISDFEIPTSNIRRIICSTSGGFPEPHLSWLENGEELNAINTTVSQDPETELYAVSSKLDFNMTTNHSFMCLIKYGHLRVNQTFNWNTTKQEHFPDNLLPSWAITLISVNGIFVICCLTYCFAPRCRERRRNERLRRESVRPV
T1 sequence (P42081 24-247): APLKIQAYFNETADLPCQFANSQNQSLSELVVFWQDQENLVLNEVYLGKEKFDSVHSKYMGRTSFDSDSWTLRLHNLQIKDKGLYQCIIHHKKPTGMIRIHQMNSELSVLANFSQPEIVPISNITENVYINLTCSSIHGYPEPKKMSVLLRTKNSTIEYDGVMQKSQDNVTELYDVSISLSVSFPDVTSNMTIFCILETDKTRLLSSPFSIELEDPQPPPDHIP

B1: L104EA29YXC120S (receptor)
chain: MHVAQPAVVLASSRGIASFVCEYASPGKYTEVRVTVLRQADSQVTEVCAATYMMGNELTFLDDSICTGTSSGNQVNLTIQGLRAMDTGLYICKVELMYPPPYYEGIGNGTQIYVIDPEPSPDSD
notes: Monomeric; prepared in an identical manner to CTLA4XC120S; also called single chain L104EA29Y extracellular domain
fold higher affinity than CTLA4X120S (CD86Ig): ~2 fold
fold slower rate of dissociation than CTLA4X120S (CD86Ig): ~3 fold
fold higher affinity than CTLA4X120S (CD80Ig): ~2 fold
fold slower rate of dissociation than CTLA4X120S (CD80Ig): ~3 fold
